According to article doi:10.1101/2023.06.17.545066 (bioRxiv, 2023):

Biological target: the molecule itself
Test: SEC

B1: EcL-TTD αβ heterodimer (complex)
chain 1: MMSESNKQQAVNKLTEIVANFTAMISTRMPDDVVDKLKQLKDAETSSMGKIIYHTMFDNMQKAIDLNRPACQDTGEIMFFVKVGSRFPLLGELQSILKQAVEEATVKAPLRHNAVEIFDEVNTGKNTGSGVPWVTWDIIPDNDDAEIEVYMAGGGCTLPGRSKVLMPSEGYEGVVKFVFENISTLAVNACPPVLVGVGIATSVETAAVLSRKAILRPIGSRHPNPKAAELELRLEEGLNRLGIGPQGLTGNSSVMGVHIESAARHPSTIGVAVSTGCWAHRRGTLLVHADLTFENLSHTRSAL
chain 2: MKKILTTPIKAEDLQDIRVGDVIYLTGTLVTCRDVCHRRLIELKRPIPYDLNGKAIFHAGPIVRKNGDKWEMVSVGPTTSMRMESFEREFIEQTGVKLVVGKGGMGPLTEEGCQKFKALHVIFPAGCAVLAATQVEEIEEVHWTELGMPESLWVCRVKEFGPLIVSIDTHGNNLIAENKKLFAERRDPIVEEICEHVHYIK
- stoichiometry N: 2
